Measurements taken from the supplement of paper PMC11908140.

B1: library; numbered along this chain (parent)
chain: MRKPRAAVGSGHRKQAASQEGRQKHAKNNSQAKPSACDGLARQPEEVVLQASVSSYHLFRDVAEVTAFRGSLLSWYDQEKRDLPWRRRAEDEMDLDRRAYAVWVSEVMLQQTQVATVINYYTGWMQKWPTLQDLASASLEEVNQLWAGLGYYSRGRRLQEGARKVVEELGGHMPRTAETLQQLLPGVGRYTAGAIASIAFGQATGVVDGNVARVLCRVRAIGADPSSTLVSQQLWGLAQQLVDPARPGDFNQAAMELGATVCTPQRPLCSQCPVESLCRARQRVEQEQLLASGSLSGSPDVEECAPNTGQCHLCLPPSEPWDQTLGVVNFPRKASRKPPREESSATCVLEQPGALGAQILLVQRPNSGLLAGLWEFPSVTWEPSEQLQRKALLQELQRWAGPLPATHLRHLGEVVHTFSHIKLTYQVYGLALEGQTPVTTVPPGARWLTQEEFHTAAVSTAMKKVFRVYQGQQPGTCMGSKRSQVSSPCSRKKPRMGQQVLDNFFRSHISTDAHSLNSAAQ

Variants of: B1
Test: 8OG:A repair function score (normalized; synonymous = 0, nonsense = -1) (normalized log-likelihood score); higher = more repair activity (WT-like)
Settings: with 8OG:A DNA repair reporter (GFP) in HEK-293 MUTYH KO cells
Procedure: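 Saturation mutagenesis (NNN codon scan) of the MUTYH cDNA (521-aa nuclear isoform NM_001048174.1 / NP_001041639), stably expressed under doxycycline induction in HEK-293 MUTYH knockout cells. Cells were co-transfected with an 8OG:A-bearing GFP repair reporter plus mCherry and sorted 72 h later into GFP+ and GFP− bins, three replicates per tile. The Rosace log2 enrichment (GFP+ vs GFP−) was converted per tile to a normalized function score with synonymous variants centered at 0 and nonsense variants (codons 1-471) at -1; low-abundance variants were removed.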

| Variant | 8OG:A repair function score |
| --- | --- |
| MRKPRAAVGSGHRKQAASQEGRQKHAKNNSQAKPSACDGLARQPEEVVLQASVSSYHLFRDVAEVTAFRGSLLSWYDQEKRDLPWRRRAEDEMDLDRRMYAVWVSEVMLQQTQVATVINYYTGWMQKWPTLQDLASASLEEVNQLWAGLGYYSRGRRLQEGARKVVEELGGHMPRTAETLQQLLPGVGRYTAGAIASIAFGQATGVVDGNVARVLCRVRAIGADPSSTLVSQQLWGLAQQLVDPARPGDFNQAAMELGATVCTPQRPLCSQCPVESLCRARQRVEQEQLLASGSLSGSPDVEECAPNTGQCHLCLPPSEPWDQTLGVVNFPRKASRKPPREESSATCVLEQPGALGAQILLVQRPNSGLLAGLWEFPSVTWEPSEQLQRKALLQELQRWAGPLPATHLRHLGEVVHTFSHIKLTYQVYGLALEGQTPVTTVPPGARWLTQEEFHTAAVSTAMKKVFRVYQGQQPGTCMGSKRSQVSSPCSRKKPRMGQQVLDNFFRSHISTDAHSLNSAAQ [A99M] | -0.378 |
| MRKPRAAVGSGHRKQAASQEGRQKHAKNNSQAKPSACDGLARQPEEVVLQASVSSYHLFRDVAEVTAFRGSLLSWYDQEKRDLPWRRRAEDEMDLDRRCYAVWVSEVMLQQTQVATVINYYTGWMQKWPTLQDLASASLEEVNQLWAGLGYYSRGRRLQEGARKVVEELGGHMPRTAETLQQLLPGVGRYTAGAIASIAFGQATGVVDGNVARVLCRVRAIGADPSSTLVSQQLWGLAQQLVDPARPGDFNQAAMELGATVCTPQRPLCSQCPVESLCRARQRVEQEQLLASGSLSGSPDVEECAPNTGQCHLCLPPSEPWDQTLGVVNFPRKASRKPPREESSATCVLEQPGALGAQILLVQRPNSGLLAGLWEFPSVTWEPSEQLQRKALLQELQRWAGPLPATHLRHLGEVVHTFSHIKLTYQVYGLALEGQTPVTTVPPGARWLTQEEFHTAAVSTAMKKVFRVYQGQQPGTCMGSKRSQVSSPCSRKKPRMGQQVLDNFFRSHISTDAHSLNSAAQ [A99C] | -0.408 |
| MRKPRAAVGSGHRKQAASQEGRQKHAKNNSQAKPSACDGLARQPEEVVLQASVSSYHLFRDVAEVTAFRGSLLSWYDQEKRDLPWRRRAEDEMDLDRRDYAVWVSEVMLQQTQVATVINYYTGWMQKWPTLQDLASASLEEVNQLWAGLGYYSRGRRLQEGARKVVEELGGHMPRTAETLQQLLPGVGRYTAGAIASIAFGQATGVVDGNVARVLCRVRAIGADPSSTLVSQQLWGLAQQLVDPARPGDFNQAAMELGATVCTPQRPLCSQCPVESLCRARQRVEQEQLLASGSLSGSPDVEECAPNTGQCHLCLPPSEPWDQTLGVVNFPRKASRKPPREESSATCVLEQPGALGAQILLVQRPNSGLLAGLWEFPSVTWEPSEQLQRKALLQELQRWAGPLPATHLRHLGEVVHTFSHIKLTYQVYGLALEGQTPVTTVPPGARWLTQEEFHTAAVSTAMKKVFRVYQGQQPGTCMGSKRSQVSSPCSRKKPRMGQQVLDNFFRSHISTDAHSLNSAAQ [A99D] | -3 |
| MRKPRAAVGSGHRKQAASQEGRQKHAKNNSQAKPSACDGLARQPEEVVLQASVSSYHLFRDVAEVTAFRGSLLSWYDQEKRDLPWRRRAEDEMDLDRRLYAVWVSEVMLQQTQVATVINYYTGWMQKWPTLQDLASASLEEVNQLWAGLGYYSRGRRLQEGARKVVEELGGHMPRTAETLQQLLPGVGRYTAGAIASIAFGQATGVVDGNVARVLCRVRAIGADPSSTLVSQQLWGLAQQLVDPARPGDFNQAAMELGATVCTPQRPLCSQCPVESLCRARQRVEQEQLLASGSLSGSPDVEECAPNTGQCHLCLPPSEPWDQTLGVVNFPRKASRKPPREESSATCVLEQPGALGAQILLVQRPNSGLLAGLWEFPSVTWEPSEQLQRKALLQELQRWAGPLPATHLRHLGEVVHTFSHIKLTYQVYGLALEGQTPVTTVPPGARWLTQEEFHTAAVSTAMKKVFRVYQGQQPGTCMGSKRSQVSSPCSRKKPRMGQQVLDNFFRSHISTDAHSLNSAAQ [A99L] | -0.788 |
| MRKPRAAVGSGHRKQAASQEGRQKHAKNNSQAKPSACDGLARQPEEVVLQASVSSYHLFRDVAEVTAFRGSLLSWYDQEKRDLPWRRRAEDEMDLDRRKYAVWVSEVMLQQTQVATVINYYTGWMQKWPTLQDLASASLEEVNQLWAGLGYYSRGRRLQEGARKVVEELGGHMPRTAETLQQLLPGVGRYTAGAIASIAFGQATGVVDGNVARVLCRVRAIGADPSSTLVSQQLWGLAQQLVDPARPGDFNQAAMELGATVCTPQRPLCSQCPVESLCRARQRVEQEQLLASGSLSGSPDVEECAPNTGQCHLCLPPSEPWDQTLGVVNFPRKASRKPPREESSATCVLEQPGALGAQILLVQRPNSGLLAGLWEFPSVTWEPSEQLQRKALLQELQRWAGPLPATHLRHLGEVVHTFSHIKLTYQVYGLALEGQTPVTTVPPGARWLTQEEFHTAAVSTAMKKVFRVYQGQQPGTCMGSKRSQVSSPCSRKKPRMGQQVLDNFFRSHISTDAHSLNSAAQ [A99K] | -1.18 |
| MRKPRAAVGSGHRKQAASQEGRQKHAKNNSQAKPSACDGLARQPEEVVLQASVSSYHLFRDVAEVTAFRGSLLSWYDQEKRDLPWRRRAEDEMDLDRRIYAVWVSEVMLQQTQVATVINYYTGWMQKWPTLQDLASASLEEVNQLWAGLGYYSRGRRLQEGARKVVEELGGHMPRTAETLQQLLPGVGRYTAGAIASIAFGQATGVVDGNVARVLCRVRAIGADPSSTLVSQQLWGLAQQLVDPARPGDFNQAAMELGATVCTPQRPLCSQCPVESLCRARQRVEQEQLLASGSLSGSPDVEECAPNTGQCHLCLPPSEPWDQTLGVVNFPRKASRKPPREESSATCVLEQPGALGAQILLVQRPNSGLLAGLWEFPSVTWEPSEQLQRKALLQELQRWAGPLPATHLRHLGEVVHTFSHIKLTYQVYGLALEGQTPVTTVPPGARWLTQEEFHTAAVSTAMKKVFRVYQGQQPGTCMGSKRSQVSSPCSRKKPRMGQQVLDNFFRSHISTDAHSLNSAAQ [A99I] | -0.617 |
| MRKPRAAVGSGHRKQAASQEGRQKHAKNNSQAKPSACDGLARQPEEVVLQASVSSYHLFRDVAEVTAFRGSLLSWYDQEKRDLPWRRRAEDEMDLDRRFYAVWVSEVMLQQTQVATVINYYTGWMQKWPTLQDLASASLEEVNQLWAGLGYYSRGRRLQEGARKVVEELGGHMPRTAETLQQLLPGVGRYTAGAIASIAFGQATGVVDGNVARVLCRVRAIGADPSSTLVSQQLWGLAQQLVDPARPGDFNQAAMELGATVCTPQRPLCSQCPVESLCRARQRVEQEQLLASGSLSGSPDVEECAPNTGQCHLCLPPSEPWDQTLGVVNFPRKASRKPPREESSATCVLEQPGALGAQILLVQRPNSGLLAGLWEFPSVTWEPSEQLQRKALLQELQRWAGPLPATHLRHLGEVVHTFSHIKLTYQVYGLALEGQTPVTTVPPGARWLTQEEFHTAAVSTAMKKVFRVYQGQQPGTCMGSKRSQVSSPCSRKKPRMGQQVLDNFFRSHISTDAHSLNSAAQ [A99F] | -1.14 |
| MRKPRAAVGSGHRKQAASQEGRQKHAKNNSQAKPSACDGLARQPEEVVLQASVSSYHLFRDVAEVTAFRGSLLSWYDQEKRDLPWRRRAEDEMDLDRREYAVWVSEVMLQQTQVATVINYYTGWMQKWPTLQDLASASLEEVNQLWAGLGYYSRGRRLQEGARKVVEELGGHMPRTAETLQQLLPGVGRYTAGAIASIAFGQATGVVDGNVARVLCRVRAIGADPSSTLVSQQLWGLAQQLVDPARPGDFNQAAMELGATVCTPQRPLCSQCPVESLCRARQRVEQEQLLASGSLSGSPDVEECAPNTGQCHLCLPPSEPWDQTLGVVNFPRKASRKPPREESSATCVLEQPGALGAQILLVQRPNSGLLAGLWEFPSVTWEPSEQLQRKALLQELQRWAGPLPATHLRHLGEVVHTFSHIKLTYQVYGLALEGQTPVTTVPPGARWLTQEEFHTAAVSTAMKKVFRVYQGQQPGTCMGSKRSQVSSPCSRKKPRMGQQVLDNFFRSHISTDAHSLNSAAQ [A99E] | -1.34 |
| MRKPRAAVGSGHRKQAASQEGRQKHAKNNSQAKPSACDGLARQPEEVVLQASVSSYHLFRDVAEVTAFRGSLLSWYDQEKRDLPWRRRAEDEMDLDRRHYAVWVSEVMLQQTQVATVINYYTGWMQKWPTLQDLASASLEEVNQLWAGLGYYSRGRRLQEGARKVVEELGGHMPRTAETLQQLLPGVGRYTAGAIASIAFGQATGVVDGNVARVLCRVRAIGADPSSTLVSQQLWGLAQQLVDPARPGDFNQAAMELGATVCTPQRPLCSQCPVESLCRARQRVEQEQLLASGSLSGSPDVEECAPNTGQCHLCLPPSEPWDQTLGVVNFPRKASRKPPREESSATCVLEQPGALGAQILLVQRPNSGLLAGLWEFPSVTWEPSEQLQRKALLQELQRWAGPLPATHLRHLGEVVHTFSHIKLTYQVYGLALEGQTPVTTVPPGARWLTQEEFHTAAVSTAMKKVFRVYQGQQPGTCMGSKRSQVSSPCSRKKPRMGQQVLDNFFRSHISTDAHSLNSAAQ [A99H] | -1.07 |
| MRKPRAAVGSGHRKQAASQEGRQKHAKNNSQAKPSACDGLARQPEEVVLQASVSSYHLFRDVAEVTAFRGSLLSWYDQEKRDLPWRRRAEDEMDLDRRNYAVWVSEVMLQQTQVATVINYYTGWMQKWPTLQDLASASLEEVNQLWAGLGYYSRGRRLQEGARKVVEELGGHMPRTAETLQQLLPGVGRYTAGAIASIAFGQATGVVDGNVARVLCRVRAIGADPSSTLVSQQLWGLAQQLVDPARPGDFNQAAMELGATVCTPQRPLCSQCPVESLCRARQRVEQEQLLASGSLSGSPDVEECAPNTGQCHLCLPPSEPWDQTLGVVNFPRKASRKPPREESSATCVLEQPGALGAQILLVQRPNSGLLAGLWEFPSVTWEPSEQLQRKALLQELQRWAGPLPATHLRHLGEVVHTFSHIKLTYQVYGLALEGQTPVTTVPPGARWLTQEEFHTAAVSTAMKKVFRVYQGQQPGTCMGSKRSQVSSPCSRKKPRMGQQVLDNFFRSHISTDAHSLNSAAQ [A99N] | -1.45 |
| MRKPRAAVGSGHRKQAASQEGRQKHAKNNSQAKPSACDGLARQPEEVVLQASVSSYHLFRDVAEVTAFRGSLLSWYDQEKRDLPWRRRAEDEMDLDRRGYAVWVSEVMLQQTQVATVINYYTGWMQKWPTLQDLASASLEEVNQLWAGLGYYSRGRRLQEGARKVVEELGGHMPRTAETLQQLLPGVGRYTAGAIASIAFGQATGVVDGNVARVLCRVRAIGADPSSTLVSQQLWGLAQQLVDPARPGDFNQAAMELGATVCTPQRPLCSQCPVESLCRARQRVEQEQLLASGSLSGSPDVEECAPNTGQCHLCLPPSEPWDQTLGVVNFPRKASRKPPREESSATCVLEQPGALGAQILLVQRPNSGLLAGLWEFPSVTWEPSEQLQRKALLQELQRWAGPLPATHLRHLGEVVHTFSHIKLTYQVYGLALEGQTPVTTVPPGARWLTQEEFHTAAVSTAMKKVFRVYQGQQPGTCMGSKRSQVSSPCSRKKPRMGQQVLDNFFRSHISTDAHSLNSAAQ [A99G] | -0.0185 |
| MRKPRAAVGSGHRKQAASQEGRQKHAKNNSQAKPSACDGLARQPEEVVLQASVSSYHLFRDVAEVTAFRGSLLSWYDQEKRDLPWRRRAEDEMDLDRYAYAVWVSEVMLQQTQVATVINYYTGWMQKWPTLQDLASASLEEVNQLWAGLGYYSRGRRLQEGARKVVEELGGHMPRTAETLQQLLPGVGRYTAGAIASIAFGQATGVVDGNVARVLCRVRAIGADPSSTLVSQQLWGLAQQLVDPARPGDFNQAAMELGATVCTPQRPLCSQCPVESLCRARQRVEQEQLLASGSLSGSPDVEECAPNTGQCHLCLPPSEPWDQTLGVVNFPRKASRKPPREESSATCVLEQPGALGAQILLVQRPNSGLLAGLWEFPSVTWEPSEQLQRKALLQELQRWAGPLPATHLRHLGEVVHTFSHIKLTYQVYGLALEGQTPVTTVPPGARWLTQEEFHTAAVSTAMKKVFRVYQGQQPGTCMGSKRSQVSSPCSRKKPRMGQQVLDNFFRSHISTDAHSLNSAAQ [R98Y] | -0.0815 |
